The values below come from paper PMC8778713, “Knockout of Arabidopsis thaliana VEP1, Encoding a PRISE (Progesterone 5β-Reductase/Iridoid Synthase-Like Enzyme), Leads to Metabolic Changes in Response to Exogenous Methyl Vinyl Ketone (MVK)” (Metabolites, 2021).

One may read the Km as the concentration of substrate that gives half-maximal velocity. A word on the kcat: it is the number of substrate molecules converted per active site and unit of time at saturation. A word on the kcat/Km: it is the second-order rate constant that governs catalysis at low substrate concentration.

Holding throughout (assay): purified protein
Format in all cases: biochemical, Arabidopsis thaliana

Substrate in data set [1]: CC(=O)[C@H]1CC[C@H]2[C@@H]3CCC4=CC(=O)CC[C@]4(C)[C@H]3CC[C@]12C
As to conditions: 0.2 mM NADPH; substrate 0.05 to 1.6 mM.

Substrate in data set [2]: NC(=O)C1=CN([C@@H]2O[C@H](COP(=O)(O)OP(=O)(O)OC[C@H]3O[C@@H](n4cnc5c(N)ncnc54)[C@H](OP(=O)(O)O)[C@@H]3O)[C@@H](O)[C@H]2O)C=CC1
Conditions: progesterone as the substrate; varied: cofactor.

Substrate in data set [3]: C=CC(C)=O
Conditions: 0.2 mM NADPH; substrate 0.05 to 1.6 mM.

B1: rAtStR2 (A. thaliana steroid reductase 2) (Arabidopsis thaliana) (protein)
chain: MGSENGSLMRRNEVDENVALIFGVTGLVGREIVKTLLMSKPGWRIYGVARNPEINSMTKMYNFISCDLLNASETKQRLSPLQDIVSHVFWVTWSGEFPLDTDECCVQNKTMLMNALDAILPNAKRLKHFSLQTGMKHYVSLVEETMARGEGSSLYYYSEECPRKSSGKNFYYVLEDLLKEKITRSSVVWSVQRPGLLMGSSSRTLYNFMGSLCVYGAMCKYLNLPFVFGGTRECWEESYIDGSDSNLVAEQHIFAATSGKVREKGEAFNAINGVGFTWKEIWPEIGKKLGVQVNETTMFDEGFWFGREMVERKHVWDEIVVKEKLVRTEIEDLANWYFLDALFRCPFKLLGKREKVDRFGFKRKYRTLDSVLYWIDVMRDEKLIPL
notes: tag removal not mentioned
B1: in data set [1], the Km amounted to 64.7 µM, the kcat was determined as 0.15 s⁻¹ and the kcat/Km amounted to 2310 M⁻¹ s⁻¹. Also, in data set [2], the Km is reported as 41.0 µM, the turnover number (kcat) was 0.12 s⁻¹ and the kcat/Km came out at 2930 M⁻¹ s⁻¹. Moreover, in data set [3], the Km worked out at 157.5 µM, the kcat came out at 0.03 s⁻¹ and the kcat/Km was 163 M⁻¹ s⁻¹.
